Assay results taken from the RNAGym collection of RNA variant scans (doi:10.1073/pnas.2313332121).

B1: TPR t1 (parent)
chain: GACCAAUCUGCCCUCAGAGCUCGAGAACAUCUUCGGAUGCAGAGGAGGCAGGCUUCGGUGGCGCGAUAGCGCCAACGUCCUCAACCUCCAAUGCAUCCCACCACAUGAUGAUGCCUGAAGAGCCUUGGUUUUUUG

Variants of: B1
Assay: polymerase ribozyme fitness, log enrichment relative to wild type (log ratio); higher = more active; in vitro selection for triplet polymerase activity
In short: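 Mutant libraries of both subunits of a heterodimeric triplet polymerase ribozyme were PCR-built, transcribed, and selected once in triplicate, with frozen incubation at −7 °C and capture of gel-excised extended constructs on streptavidin beads before RT-PCR. Illumina sequencing of input and output libraries was filtered to genotypes with ≥10 input reads and ≥1 read per output. Fitness is the logarithm of genotype enrichment over wild-type enrichment, using inverse-variance-weighted replicate averages. The logarithm is base 2.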

| Variant | polymerase ribozyme fitness (log ratio) |
| --- | --- |
| GACCAAUCUGCGCUUAGAGCUCGAGAACAUCUUCGGAUGCAGAGGAGGCAGGCUUCGGUGGCGCGAUAGCGCCUACGUCCUCAACCUCCAAUGCAUCCCACCACAUGAUGAUGCCAAAAGAGCCUUGGUUUUAUG | -1.36 |
| GACCAAUCUGCGCUCAGUGCUCGAGAACAUCUUCGGAUGCAGAGGAGGCAGGCUUCGGUGGCGCGAUAGCGCCAACGUCCUCAACCUCCAAUGCAUCCCACCACAUGAUGAUGCCUGAAGAGCCUUGGUUUUUUG | -1.46 |
| GACCAAUCUGCGCUCAGAGCUCGAGAACAUCUUCGGAUGCAGAGGUGGAAGGCUUCGGUGGCGCGAUAGCGCCAACGUCCUCAACCUCCAAUGCCUCCCACCACAUGAUGAUGCCUGAAGAGCCUUGGUUUUUUG | -2.16 |
| GACCAAUCUGCGCUCAGAGCUCGAGAACAUCUUCGGAUGCAGAGGAGGCAGGCUUCGGUGGCGCGAUAGCGCCCACGUCCUCAACCUCAAAUGCAUCCCACCACAUGAUGAUGCCUGAAGAGCCUUGGUUUUUUG | -1.6 |
| GACCAAUCUGCGUUCAGAUCUCGAGAACAUCUUCGGAUGCAGACGAGGCAGGCUUCGGUGGCGCGAUAGCGCAAACGUCCUCAACCUCCAAUACAUCCCACCACAUGAUGAUGCCUGAAGAGCCUUGGUUUUUUG | -4.75 |
| GACCAAUCUGCGCUCAGAGCUCGAGAACUUCUUCGGAUGCAGAGGAGGCAGGCUGCGGUGGUGCGAUAGCGCCAACGUCCUCAACCUCCAAUGCAUCCCACUACAUGAUGAUGCCUAAAGAGCCUUGGUUUUUUG | -4.8 |
| GACCAAUCUGCGCUCAGAGCUCGAGAACAUCUUCGGAUGCAGAGGCGGCAGGCUUCGGUGGCGCGAUAGCGCCAACGUCCUCAACCUCCAAUGCAUCCCACCACAUGAUGAUGCCUGAAGAGCCUUGGUUUUUUG | -1.55 |
| GACCAAUCUGCGCUCAGAGCUCGAGAACAUCUUCGGAUGCAGAGGAGGCAGGCUUCGGUGGCGCGAUAGCGCCAACGUCCUCAACCUCCAAUGCAUCCCCCCACAUGAUGAUGCCUGAAGAGCCUUGGUUUUUUG | -0.741 |
| GACCAAUCUGCGCUCAGAGCUCGAGAACAUCUUCGGGUGCAGAGGAGGCAGGCUUCGGUGGCGCGAUAGCGCCAACGUCCUCAACCUCCAAUGCAUCCCACCACAUGAUGAUGCCUGAAGAGCCUUGGUUUUUUG | 0.106 |
| GACCAAUCUGCGCUCAGAGCUCGAGAGCAUCUUCGGAUGCAGAGGAGGCAGGCUUCGGUGGCGCGAUGGCGCCAACGUCCUCAACCUCCAAUGCAUCCCACCACAUGAUGAUGCCUGAAGAGCCUUGGUUUUUUG | -4.94 |
| GACCAAUCUGCGCUCAGAGCUCGAGAACAUCUUCGGAUGCAGUGGAGGCAGGCUUCGGUGACGCGAUAGCGCCAACGUCCUCAUCCUCCAAUGCAUCCCACCACAUGAUGAUGCCUGAAGAGCCUUGGUUUUUUG | -1.52 |
| GACCAAUCUGCGUUCAGAGAUCGAGAACAUCUUCGGAUGAAGAGGAGGCAGGCUUUGGUGGCGCGAUAGCGCCAACGUCCUCAACCUCCAAUGCAUCCCACCACAUGAUGAUGUAUGAAGAGCCUUGGUUUUUUG | -3.7 |
| GACCAAUCUGCGCUCAGAGCUCGAGAACUUCUUCGGAUGCAGAGGAGGCAGGCUUCGGUGGCGCGAUAGCGCCAACGUCCUCAACCUCCAAUGCAUCCCACCACAUGAUGAUGCCUGAAGAGCCUUGGUUUUUUG | -1.54 |
| GACCAAUCUGCGCUCAGAGCUCGAGAACCUCUUCGGAUGCAGAGGAGGCAGGCUUCGGUGGCGCGAUAGCGCCAACGUCCUCAACCUCCAAUGCAUCCCACCACAUGAUGAUGCCUGAAGAGCCUUGGUUUUUUG | -1.57 |
| GACCAAUCUGCGCUCAGAGCUCGAGAACAUCUUCGGAUGCAGAGGAGGCUGGCUUCGGUGGCGCGAUAGCGCUAACGUCCUCAACCUCCAAUGCAUCCCACCACAUGAUGAUGCCUGAAGAGCCUUGGUUUUUUG | -0.885 |
| GACCAAUCUGCGCUCAGAGCUCGAGAACAUCUUCGGUUGCAGAGGAGGCAGGCUUCGGUGCCGCGAUAGCGCCAGCGUCCUCAACCUCCAAUGCAUCCCACCACAUGAUGAUGCCUGAAGAGCCUUGGUUUUUUG | -1.16 |
| GACCAAUCUGCGCUCAGAGCUCGAGAACAUCUUCGGAUGCAGAGGAGGCAGGCUUCGGUGGCGCGAUAGCGCCAACGUCCUCCACCUCCAAUGCAUCCCACCACAUGAUGAUGCCUGAAGAGCCUUGGUUUUUUG | -1.43 |
| GACCAAUCUGCGCUCAGAGCUCGAGAACAUCUUCGGAUGCAGUGGAGGCAGGCUUCGGUGGCGCGAUAGGGCCAACGUCCUCAACCUCCAAUGCAUCCCACCACAUGAUGAUGCCUGAAGAGCGUUGGUUUUUUG | -4.85 |
| GACCAAUCUGCGCUCAGAGCUCGAGAACAUCUUCGGAUGCAGAGGAGGCAGGCUUCGGUGGCGCGAUAGCGCCAACGUCCUCAACCUCCAAUGCAUCCCACCACAUGAUGAUGCCUGAAGCGCCUUGGUUUUUUG | 1.5 |
| GACCAAUCUGCGCUAAGAGCUCGAGAACAUCUUCGGAUGCAGAGGAGGCCGGCUUCGGUGGCGCGAUAGCGCCAACGUCCUCAACCUCCAAUGCAUCCCACCACAUGAUGAUGCCUGAAGAGCCUUGGUUUUUUG | -2.29 |
| GACCAAUCUGCGCUCAGAGCUCGAGAACAUCUUCGGAUGCAGGGGAGGCAGGCUUCGGUGGCGCGAUAGCGCCAACGUACUCAACCUCCAAUGCAUCCCACCACAUGAUGAAGCCUCAAGAGCCUUGGUUUUUUG | -4.33 |

| Variant | polymerase ribozyme fitness (log ratio) |
| --- | --- |
| GACCAAUCUGCGCUCAGAGCUCGGGAACAUCUUCGGAUGCUGAGGAGGCAGGCUUCCGUGGCGCGAUAGCGCCAACGUCCUCAACCUCCAAUGCAUCCCACCACAUGAUAAUGCCUGAAGAGCCUUGGUUUUUUG | -5.76 |
| GACCAAUCUGCGCUGAGAGCUCGAGAACAUCUUCGGAUGCAGAGGAGGCAGGCUUCGGUGGCGCGAUAGCGCCAACGUCCUCAACCUCCAAUGCAUCCCACCACAUGAUGAUGCCUGAAGAGUCUUGGUUUUUUG | -1.81 |
| GACCAAUCUGCGCUCAGAGCUCGAGAACAUCUUCGGAUGCAGAGGAGGCAGGCUUCGGUGGCGCGCUAGCGCCAACGUCCUCAACCUCCAAUGCAUCCCACCACAUGAUGAUGCCUGAAGAGCCUUGGUUUUUUG | -0.578 |
| GACCAAUCUGCGCUCAGAGCUCGAGAACAUCUUCGGAUGCAGUGGAGGCAGGCUUCGGUGGCGCGAUAGAGCCAACGUUCUAAACCUCCAAUGCAACCCACCACAUGAUGAUGCCUGAAGAGCCUUGGUUUUUUG | -5.11 |
| GACCAAUCUGCGCUUAGAGCUCGAGAACAUCUUCGGAUGCAGAGGAGGCAGGCUUCGGUGGAGCGAUAGCGCCAACGUCCUCAACCUCCAAUGCAUCCCACCACAUGAUGAUGCCUGAAGAGCCUUGGUUUUUUG | -1.99 |
| GACCAAUCUGCGCUCAGAGCUCGAGAACAUCUUCGGAUGCAGAGGGGGCAGGGUUCGGUGGCGCGAUAGCGCCAACGUCCUCAACCUCCAAUGCGUCCCACCACAUGAUGAUGCCUGAGGAGCCUUGGUUUUUUG | 0.414 |
| GACCAAUCUGCGCUCAGAGCUCGAGUACAUCUUCGGAUGCAGAGUAGGCAGGCUUCGGUGGCGCGAUAGCGCCAACGUCCUCAACCUCCAAUGCAUCCCACCACAAGAUGAUGCCUGAAGAGCCUUUGUUUUUUG | -4.14 |
| GACCAAUCUGCGCUCAGAGCUCGAGAACAUCUUCGGAUGCAGAGGUGGAAGGCUUCGGUGGCGCGAUAGCGCCAACGUCCUCAACCUCCAAUGCAUCCCACCACAUGAUGAUGCCUGAAGAGCCUUGGUUUUUUG | -1.36 |
| GACCAAUCUGCGCUCAGAGCUCGAGCACAUCUUCGGAUGCAGAGGAGGCAGGCUUCGGUUGCGCGAUAGCGCCAACGUCCUCAACCUCCAAUGCAUCCCACCACAUGAUGAUGCCUGAAGUGCAUUGGUUGUUUG | -3.72 |
| GACCAAUCUGCGAUCAGAGCUCGAGAACAUCUUCGAAUGCAGAGGACGCAGGCUUCGGUGGCGCGAUAGCGCCAACGUCCUCAACUUCCAAUGCAUCCCACCACAUGAUGAUGGCUGAAGAGCCUUGGUUUUUUG | -6.13 |
| GACCAAUCUGCGCUCAGAGCUCGAGAACAUCUUCGGUUGCAGAGGAGGCAGGCUUCGGUGCCGCGAUAGCGCCAACGUCCUCAACCUCCAAUGCAUCCCACCACAUGAUGAUGCCUGAAGAGCCUUGGUUUUUUG | -1.78 |
| GACCAAUCUGCGCUCAGGGCUCGAGAACAUCUUCGGAUGCAGACGAGGCAGGCUUCGGUGGCGCGAUAGCCCCAACGUCCUCAUCCUCCAAUGCAUCCCACCACAUGAUGAUGCCUGAAGAGCCUUGGUUUUUUG | -6.08 |
| GACCAAUCUGCGCUAAGAGCUCGAGAACAUCUUCGGAUGCGGAGGAGGCAGGCUUCGGUGGCGCGAUAGCGCCAACGUCCUCAACCUCCAAUGCAUCCCACCACAUGAUAAUGCCUGAAGAGCCUUGGUUUUUUG | -4.25 |
| GACCAAUCUGCGCUCAGAGCUCGAGAACAUCUUCGGAUGCAGUGCAGGCAGGCUUCGGUGGCGCGAUAGCGCAAACGACCUCAACCUCCAAGGCAUCCCACCACAUGAUGAUGCCUGAAGAGCCUUGGUUUUUUG | -2.67 |
| GACCAAUCUGCGCUCAGUGCUCGAGAACAUCUUCGGAUGCAGAGUAGGCAGGCUUCGGUGGCUCGAUAGCGCCAACGUCCUCAACCUACAAUGCAUCCCACCACAUGAUGAUGCCUGAAGAGCCUUGGUUUUUUG | -5.09 |
| GACCAAUCUGCGCUCAGAGCUCGAGAACAUCUUCGGAUGCAGAGGAGGCAGGCUUCGGUGGCGCGAUAGCGCCAUCGUCCUCAACCUCCAAUGCAUCCCACCACAUGAUGAUGCCUGAAGAGCCUUGGUUUUUUG | 0.372 |
| GACCAAUCUGCGCUAAGAGCUCGAGAACAUCUUCGGAUUCGGAGGAGGGAGGCUUCGGUGGCGCGAUAGCGCCAACGUCCUCAACCUCCAAUGCAUCCCACCACAUGAUGAUGCCUGAAGAGCCUUGGUUUUUUG | -4.44 |
| GACCAAUCUGCGCUGAGAGCUCGAGAACAUCUUCGGAUGCAGAGGAGGCAUGCUUCGGUGGCGCGAUAGCGCAAACGUCCUCAACCUCCAAUGCAUCCCACCACAUGAUGAUGCCUUAAGAGCCUUGGUUUUUUG | -2.07 |
| GACCAAUCUGCGCUCAGAGCUCGAGAACUUCUUCGGAUGCAGAGGAGGCAGGCUUCGGUGGCGCGAUAGCGCCAACGUCCUCAACCUCCAAUGCAUCCCACCACAUGAUGAUGCCUAAAGAGCCUUGGUUUUUUG | -2 |
| GACCAAUCUGCGCUCAGAGCUCGAGAACAUCUUCGGAUGCAGAGGAGGCAGGCUUCGGUGGCGCGAUAGCGCCAACGUCCUCAACCUCCAAUGCAUCCCCCCACAUGAUGAUUCCUGAAGAGCCUUGGUUUUUUG | -5.35 |
| GACCAAUCUGCGCUCAGAGCUCGAGAACAUCUUCGGAUGCAGCGGAGACAGGCUUCGGUGGCGCGAUAGCGCCAACGUCCUCAACCUCCAAUGCAUCCCACCACAUGAUGAUGCCUGAAGAGCCUUGGUUUUUUG | -2.3 |
